Target: HAdV7灭活病毒 (human/CHN/GZ6965/2001)

B1: 10G12抗体 (antibody, V domains shown)
VH: QVQLKQPGAELVRPGASVKLSCKASGYSFTNYWMHWMKQRPGQGLEWIGMIDPSDSETRLNQKFKDKATLTVDKSSSIAYMQLSSPTSEDSAVYYCARDRYDGGAWFDYWSQGTLVT
VL: DIVMTQTPLSLPVSLGDQASISCRSSQSLVHSNGNTYLHWYLQKPGQSPKLLIYKVSNRFSGVPDRFSVSGSGTDFTLKISRVEAEDLGVYFCSQSTHVPPTFGGGTKLEIK
**Q.** For B1, which EC50 is on record?
**A.** 0.14 nM
